Data published in the supplement of paper PMC7125110.
± gives the standard error. This sample holds only a part of the variants without activity.

B1: glmS ribozyme (parent)
chain: AUAAAAGCGCCAGAACUACAGAAAUGUAGUUGACGAGGAGGAGGUUUAUCGAAUUUUCGGCGGAUGCCUCCAAA

Assays:
Conditions in all cases: with glucosamine-6-phosphate
glucosamine-6-phosphate [1] = variants of: B1; experiment: self-cleavage kobs at 40 uM GlcN6P; higher = faster cleavage; RNA array
How it was run: (§1)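 Ribozyme variants carrying barcodes were transcribed in situ on sequenced MiSeq chips by E. coli RNA polymerase and tracked at 37 °C with a hybridised Cy3 probe. They were exposed to 40 μM to 10 mM glucosamine-6-phosphate in HEPES/KCl/Mg(OAc)2 buffer. kobs came from exponential decay fits of normalised per-tile medians, and kcat and KM from weighted Michaelis–Menten fits.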

glucosamine-6-phosphate [2] = variants of: B1; experiment: self-cleavage kobs at 10000 uM GlcN6P; higher = faster cleavage; RNA array
How it was run: as §1

glucosamine-6-phosphate [3] = variants of: B1; experiment: self-cleavage kobs at 160 uM GlcN6P; higher = faster cleavage; RNA array
How it was run: as §1

glucosamine-6-phosphate [4] = variants of: B1; experiment: self-cleavage kobs at 640 uM GlcN6P; higher = faster cleavage; RNA array
How it was run: as §1

glucosamine-6-phosphate [5] = variants of: B1; experiment: self-cleavage kobs at 2500 uM GlcN6P; higher = faster cleavage; RNA array
How it was run: as §1

Row | Variant | self-cleavage kobs at 40 uM GlcN6P (glucosamine-6-phosphate [1]) | self-cleavage kobs at 10000 uM GlcN6P (glucosamine-6-phosphate [2]) | self-cleavage kobs at 160 uM GlcN6P (glucosamine-6-phosphate [3]) | self-cleavage kobs at 640 uM GlcN6P (glucosamine-6-phosphate [4]) | self-cleavage kobs at 2500 uM GlcN6P (glucosamine-6-phosphate [5])
1 | A53U U56A C70U | 0.000179 ± 3.4e-05 s⁻¹ | 0.00382 ± 0.0011 s⁻¹ |  |  | 
2 | U54C U55C U65A | 3.24e-05 ± 1.6e-05 s⁻¹ |  |  |  | 
3 | U55A C71G | 8.5e-05 ± 2.2e-05 s⁻¹ | 0.00278 ± 0.0012 s⁻¹ | 0.000248 ± 9.2e-05 s⁻¹ | 0.00136 ± 0.00036 s⁻¹ | 0.000736 ± 0.00023 s⁻¹
4 | U55A C71A | 0.000472 ± 6.9e-05 s⁻¹ | 0.0132 ± 0.0032 s⁻¹ | 0.000925 ± 0.00023 s⁻¹ | 0.00299 ± 0.00056 s⁻¹ | 
5 | G59A A64C | < 1e-05 s⁻¹ |  | < 1e-05 s⁻¹ | < 1e-05 s⁻¹ | < 1e-05 s⁻¹
6 | U56G U69C | 0.000126 ± 1.8e-05 s⁻¹ | 0.00475 ± 0.0011 s⁻¹ | 0.000192 ± 6.9e-05 s⁻¹ | 0.000627 ± 0.00011 s⁻¹ | 0.00118 ± 0.00041 s⁻¹
7 | C58A G63U | < 1e-05 s⁻¹ |  | < 1e-05 s⁻¹ | < 1e-05 s⁻¹ | < 1e-05 s⁻¹
8 | A53U G60C | < 1e-05 s⁻¹ | < 1e-05 s⁻¹ |  |  | < 1e-05 s⁻¹
9 | A53G G62A C67U | < 1e-05 s⁻¹ |  |  |  | 
10 | U56C G63U | < 1e-05 s⁻¹ | < 1e-05 s⁻¹ | < 1e-05 s⁻¹ |  | 
11 | U54C G63U A64C | < 1e-05 s⁻¹ | < 1e-05 s⁻¹ |  |  | 
12 | C58A C61U G66U | < 1e-05 s⁻¹ |  |  |  | 
13 | U54A U55C | 0.00104 ± 0.00016 s⁻¹ | 0.0628 ± 0.022 s⁻¹ | 0.00215 ± 0.00046 s⁻¹ | 0.00479 ± 0.001 s⁻¹ | 0.0235 ± 0.0076 s⁻¹
14 | U54A U55G | 0.00074 ± 7.7e-05 s⁻¹ | 0.0328 ± 0.011 s⁻¹ | 0.00127 ± 0.00022 s⁻¹ | 0.00651 ± 0.0008 s⁻¹ | 0.0121 ± 0.0021 s⁻¹
15 | A52G U57A G66U | < 1e-05 s⁻¹ | 3.15e-05 ± 1.6e-05 s⁻¹ |  |  | 
16 | U54A C71G | 0.000131 ± 2.1e-05 s⁻¹ | 0.00197 ± 0.00046 s⁻¹ | 0.000336 ± 0.00012 s⁻¹ | 0.000507 ± 0.00011 s⁻¹ | 0.000368 ± 0.00016 s⁻¹
17 | U54A C71U | 0.00124 ± 0.00023 s⁻¹ | 0.0214 ± 0.01 s⁻¹ | 0.00159 ± 0.00033 s⁻¹ | 0.00337 ± 0.00063 s⁻¹ | 0.00313 ± 0.00083 s⁻¹
18 | U54C G60A | < 1e-05 s⁻¹ |  |  |  | 
19 | C58G G59U | < 1e-05 s⁻¹ | < 1e-05 s⁻¹ | < 1e-05 s⁻¹ | < 1e-05 s⁻¹ | < 1e-05 s⁻¹
20 | U54G C68U | 0.000327 ± 2.5e-05 s⁻¹ | 0.00395 ± 0.00053 s⁻¹ | 0.000869 ± 0.00021 s⁻¹ | 0.000824 ± 0.00012 s⁻¹ | 0.0036 ± 0.00084 s⁻¹
